# Laboratory results published in patent publication US20220402980A1, “CHROMOGRANIN A-DERIVED PEPTIDES AND USES THEREOF” (OSPEDALE SAN RAFFAELE S.R.L., priority 2019, published 2022).
# Molecular target: wild-type human integrin α5β1 (octyl β-D-glucopyranoside preparation) (human), P08648
# Assay: competitive binding assay on α5β1-coated plates, isoDGR/STV-HRP probe
# Sequence of wild-type human integrin α5β1 (octyl β-D-glucopyranoside preparation) (human), P08648 (P08648 42-1049, chain 1 of 2): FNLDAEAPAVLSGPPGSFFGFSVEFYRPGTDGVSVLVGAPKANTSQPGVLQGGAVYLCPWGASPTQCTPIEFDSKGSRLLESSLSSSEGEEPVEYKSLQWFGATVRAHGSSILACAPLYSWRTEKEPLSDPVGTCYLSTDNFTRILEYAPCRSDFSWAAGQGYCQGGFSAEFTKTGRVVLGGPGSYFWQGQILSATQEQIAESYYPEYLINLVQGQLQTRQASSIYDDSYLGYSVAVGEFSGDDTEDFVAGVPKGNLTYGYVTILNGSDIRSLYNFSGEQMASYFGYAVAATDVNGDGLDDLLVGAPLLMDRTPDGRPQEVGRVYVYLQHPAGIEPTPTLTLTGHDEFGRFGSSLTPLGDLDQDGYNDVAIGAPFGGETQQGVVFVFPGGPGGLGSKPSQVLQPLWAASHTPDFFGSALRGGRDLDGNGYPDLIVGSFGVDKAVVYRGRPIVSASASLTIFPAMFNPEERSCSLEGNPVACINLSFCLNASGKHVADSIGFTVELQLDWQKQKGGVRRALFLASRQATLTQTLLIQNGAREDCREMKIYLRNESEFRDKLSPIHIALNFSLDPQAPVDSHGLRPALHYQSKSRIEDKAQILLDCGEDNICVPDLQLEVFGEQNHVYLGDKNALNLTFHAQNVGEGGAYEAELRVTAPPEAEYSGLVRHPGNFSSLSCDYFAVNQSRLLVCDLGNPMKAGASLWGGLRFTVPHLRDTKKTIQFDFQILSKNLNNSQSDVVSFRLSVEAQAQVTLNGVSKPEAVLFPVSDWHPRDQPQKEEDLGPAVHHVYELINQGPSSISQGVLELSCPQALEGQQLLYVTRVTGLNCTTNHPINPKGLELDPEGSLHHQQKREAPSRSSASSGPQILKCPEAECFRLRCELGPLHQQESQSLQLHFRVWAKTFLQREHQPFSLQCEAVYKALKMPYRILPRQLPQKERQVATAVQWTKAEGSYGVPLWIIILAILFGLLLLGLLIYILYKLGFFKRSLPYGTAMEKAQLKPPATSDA
# Sequence of wild-type human integrin α5β1 (octyl β-D-glucopyranoside preparation) (human), P08648 (P05556 21-798, chain 2 of 2, further chain): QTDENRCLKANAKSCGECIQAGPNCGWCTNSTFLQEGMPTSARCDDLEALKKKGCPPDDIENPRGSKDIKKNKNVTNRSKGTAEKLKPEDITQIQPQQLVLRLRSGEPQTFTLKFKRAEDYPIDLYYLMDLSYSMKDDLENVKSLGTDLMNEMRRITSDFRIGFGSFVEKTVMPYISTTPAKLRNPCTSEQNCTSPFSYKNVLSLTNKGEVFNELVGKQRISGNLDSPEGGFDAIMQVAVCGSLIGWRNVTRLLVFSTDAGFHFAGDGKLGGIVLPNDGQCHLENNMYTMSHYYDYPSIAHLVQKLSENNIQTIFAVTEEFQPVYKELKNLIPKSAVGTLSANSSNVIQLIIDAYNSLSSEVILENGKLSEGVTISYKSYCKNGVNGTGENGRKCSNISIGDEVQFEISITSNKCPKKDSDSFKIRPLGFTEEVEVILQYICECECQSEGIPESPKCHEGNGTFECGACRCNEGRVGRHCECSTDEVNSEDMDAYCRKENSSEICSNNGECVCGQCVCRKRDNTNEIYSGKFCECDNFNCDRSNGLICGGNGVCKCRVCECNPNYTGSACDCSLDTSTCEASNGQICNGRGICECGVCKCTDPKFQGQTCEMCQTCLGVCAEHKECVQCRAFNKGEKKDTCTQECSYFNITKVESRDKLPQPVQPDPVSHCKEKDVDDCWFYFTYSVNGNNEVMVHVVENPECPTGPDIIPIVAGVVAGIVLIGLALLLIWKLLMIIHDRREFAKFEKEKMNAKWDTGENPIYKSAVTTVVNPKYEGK
binder,measurement,value
NAVPNLRGDLQVLAQKVART (modifications not checked) [foot and mouth disease virus-derived peptide A20FMDV2],Ki,2.32 µM
